Source: the supplement of paper PMC9112550, “Optimization of the antimicrobial peptide Bac7 by deep mutational scanning” (BMC Biology, 2022)

System: Escherichia coli TOP10
Test: shrunken log2 fold change of peptide-encoding DNA abundance (4.5 h post-induction vs induction); higher = less antimicrobial activity (less host growth inhibition)
Details: time post-induction: 4.5 h; library: site-saturation at positions 5, 18, 19, 20
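Note: peptides expressed intracellularly from a pBAD plasmid library in pooled LB shake-flask culture, induced with 0.3% L-arabinose, DNA abundance read by NGS, three biological replicates, DESeq2 with apeglm shrinkage.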

| Sequence | shrunken log2 fold change |
| --- | --- |
| RRIRDRPPRLPRPRPRPKAYPRP | 0.053 |
| RRIRDRPPRLPRPRPRPKCEPRP | -0.351 |
| RRIRDRPPRLPRPRPRPKDFPRP | -0.00804 |
| RRIRDRPPRLPRPRPRPKEKPRP | -0.0263 |
| RRIRDRPPRLPRPRPRPKEMPRP | -0.00146 |
| RRIRDRPPRLPRPRPRPKEQPRP | 0.0816 |
| RRIRDRPPRLPRPRPRPKFFPRP | 0.136 |
| RRIRDRPPRLPRPRPRPKFSPRP | -0.023 |
| RRIRDRPPRLPRPRPRPKFVPRP | 0.0202 |
| RRIRDRPPRLPRPRPRPKGFPRP | -0.073 |
| RRIRDRPPRLPRPRPRPKIDPRP | 0.0277 |
| RRIRDRPPRLPRPRPRPKKHPRP | -0.0344 |
| RRIRDRPPRLPRPRPRPKKYPRP | -0.239 |
| RRIRDRPPRLPRPRPRPKMPPRP | -0.0144 |
| RRIRDRPPRLPRPRPRPKMWPRP | 0.123 |
| RRIRDRPPRLPRPRPRPKMYPRP | 0.0269 |
| RRIRDRPPRLPRPRPRPKNTPRP | -0.226 |
| RRIRDRPPRLPRPRPRPKPFPRP | 0.013 |
| RRIRDRPPRLPRPRPRPKPKPRP | 0.254 |
| RRIRDRPPRLPRPRPRPKQPPRP | -0.0112 |
| RRIRDRPPRLPRPRPRPKRRPRP | 0.529 |
| RRIRDRPPRLPRPRPRPKSRPRP | 0.0765 |
| RRIRDRPPRLPRPRPRPKTGPRP | -0.111 |
| RRIRDRPPRLPRPRPRPKTLPRP | -0.21 |
| RRIRDRPPRLPRPRPRPKVPPRP | -0.00145 |

| Sequence | shrunken log2 fold change |
| --- | --- |
| RRIRDRPPRLPRPRPRPLDMPRP | -0.08 |
| RRIRDRPPRLPRPRPRPLDNPRP | -0.0187 |
| RRIRDRPPRLPRPRPRPLFNPRP | -0.375 |
| RRIRDRPPRLPRPRPRPLFYPRP | -0.258 |
| RRIRDRPPRLPRPRPRPLGHPRP | 0.0421 |
| RRIRDRPPRLPRPRPRPLHSPRP | 0.0372 |
| RRIRDRPPRLPRPRPRPLIGPRP | 0.239 |
| RRIRDRPPRLPRPRPRPLITPRP | 0.189 |
| RRIRDRPPRLPRPRPRPLKWPRP | 0.0491 |
| RRIRDRPPRLPRPRPRPLLWPRP | 0.754 |
| RRIRDRPPRLPRPRPRPLMFPRP | -0.188 |
| RRIRDRPPRLPRPRPRPLNHPRP | -0.154 |
| RRIRDRPPRLPRPRPRPLNSPRP | 0.0283 |
| RRIRDRPPRLPRPRPRPLPKPRP | 0.368 |
| RRIRDRPPRLPRPRPRPLPYPRP | -0.0311 |
| RRIRDRPPRLPRPRPRPLQAPRP | 0.365 |
| RRIRDRPPRLPRPRPRPLQCPRP | 0.0793 |
| RRIRDRPPRLPRPRPRPLQDPRP | 0.115 |
| RRIRDRPPRLPRPRPRPLSHPRP | -0.0109 |
| RRIRDRPPRLPRPRPRPLTHPRP | 0.179 |
| RRIRDRPPRLPRPRPRPLTKPRP | 0.0084 |
| RRIRDRPPRLPRPRPRPLVKPRP | 0.0947 |
| RRIRDRPPRLPRPRPRPLWHPRP | 0.0123 |
| RRIRDRPPRLPRPRPRPLYLPRP | -0.648 |
| RRIRDRPPRLPRPRPRPLYPPRP | -0.277 |

| Sequence | shrunken log2 fold change |
| --- | --- |
| RRIRDRPPRLPRPRPRPMCNPRP | -0.0221 |
| RRIRDRPPRLPRPRPRPMDPPRP | -0.0367 |
| RRIRDRPPRLPRPRPRPMETPRP | -0.00149 |
| RRIRDRPPRLPRPRPRPMGDPRP | 0.25 |
| RRIRDRPPRLPRPRPRPMGFPRP | 0.258 |
| RRIRDRPPRLPRPRPRPMHGPRP | -0.123 |
| RRIRDRPPRLPRPRPRPMHVPRP | -0.00476 |
| RRIRDRPPRLPRPRPRPMINPRP | 0.0491 |
| RRIRDRPPRLPRPRPRPMKPPRP | 0.0123 |
| RRIRDRPPRLPRPRPRPMKRPRP | 0.108 |
| RRIRDRPPRLPRPRPRPMLNPRP | 0.21 |
| RRIRDRPPRLPRPRPRPMLPPRP | 0.16 |
| RRIRDRPPRLPRPRPRPMLTPRP | 0.155 |
| RRIRDRPPRLPRPRPRPMNDPRP | -0.126 |
| RRIRDRPPRLPRPRPRPMNMPRP | -0.308 |
| RRIRDRPPRLPRPRPRPMNQPRP | -0.334 |
| RRIRDRPPRLPRPRPRPMQNPRP | 0.269 |
| RRIRDRPPRLPRPRPRPMQSPRP | 3.94 |
| RRIRDRPPRLPRPRPRPMRFPRP | 0.21 |
| RRIRDRPPRLPRPRPRPMRTPRP | 0.519 |
| RRIRDRPPRLPRPRPRPMSVPRP | -0.00308 |
| RRIRDRPPRLPRPRPRPMYHPRP | 0.0212 |
| RRIRDRPPRLPRPRPRPMYLPRP | -0.239 |
| RRIRDRPPRLPRPRPRPNEKPRP | -0.0281 |
| RRIRDRPPRLPRPRPRPNGYPRP | -0.36 |

| Sequence | shrunken log2 fold change |
| --- | --- |
| RRIRDRPPRLPRPRPRPNHHPRP | -0.539 |
| RRIRDRPPRLPRPRPRPNHTPRP | -0.0643 |
| RRIRDRPPRLPRPRPRPNIRPRP | -0.0481 |
| RRIRDRPPRLPRPRPRPNISPRP | -0.266 |
| RRIRDRPPRLPRPRPRPNKAPRP | 0.0205 |
| RRIRDRPPRLPRPRPRPNLEPRP | 0.27 |
| RRIRDRPPRLPRPRPRPNLNPRP | -0.229 |
| RRIRDRPPRLPRPRPRPNMAPRP | -0.144 |
| RRIRDRPPRLPRPRPRPNNAPRP | -0.204 |
| RRIRDRPPRLPRPRPRPNNLPRP | -0.556 |
| RRIRDRPPRLPRPRPRPNSLPRP | 0.0174 |
| RRIRDRPPRLPRPRPRPNSNPRP | -0.573 |
| RRIRDRPPRLPRPRPRPNTIPRP | -0.456 |
| RRIRDRPPRLPRPRPRPNWNPRP | -0.1 |
| RRIRDRPPRLPRPRPRPNYCPRP | 0.0253 |
| RRIRDRPPRLPRPRPRPNYDPRP | -0.211 |
| RRIRDRPPRLPRPRPRPPAFPRP | 0.192 |
| RRIRDRPPRLPRPRPRPPANPRP | 0.0989 |
| RRIRDRPPRLPRPRPRPPCDPRP | -0.0123 |
| RRIRDRPPRLPRPRPRPPCKPRP | -0.129 |
| RRIRDRPPRLPRPRPRPPCNPRP | -0.424 |
| RRIRDRPPRLPRPRPRPPCTPRP | 0.00986 |
| RRIRDRPPRLPRPRPRPPDVPRP | 0.302 |
| RRIRDRPPRLPRPRPRPPELPRP | 0.107 |
| RRIRDRPPRLPRPRPRPPFCPRP | 0.284 |

| Sequence | shrunken log2 fold change |
| --- | --- |
| RRIRDRPPRLPRPRPRPPFKPRP | 0.18 |
| RRIRDRPPRLPRPRPRPPFVPRP | 0.0811 |
| RRIRDRPPRLPRPRPRPPGPPRP | 1.9 |
| RRIRDRPPRLPRPRPRPPHGPRP | 0.294 |
| RRIRDRPPRLPRPRPRPPHHPRP | -0.0964 |
| RRIRDRPPRLPRPRPRPPICPRP | -0.224 |
| RRIRDRPPRLPRPRPRPPIEPRP | -0.0618 |
| RRIRDRPPRLPRPRPRPPKHPRP | 0.0331 |
| RRIRDRPPRLPRPRPRPPLSPRP | 0.0434 |
| RRIRDRPPRLPRPRPRPPLTPRP | 0.307 |
| RRIRDRPPRLPRPRPRPPMGPRP | 0.283 |
| RRIRDRPPRLPRPRPRPPNLPRP | -0.172 |
| RRIRDRPPRLPRPRPRPPNMPRP | 0.0281 |
| RRIRDRPPRLPRPRPRPPNNPRP | -0.261 |
| RRIRDRPPRLPRPRPRPPPLPRP | 0.586 |
| RRIRDRPPRLPRPRPRPPRCPRP | 0.551 |
| RRIRDRPPRLPRPRPRPPRIPRP | 0.185 |
| RRIRDRPPRLPRPRPRPPSPPRP | 0.494 |
| RRIRDRPPRLPRPRPRPPTEPRP | 0.274 |
| RRIRDRPPRLPRPRPRPPTVPRP | 0.381 |
| RRIRDRPPRLPRPRPRPPWHPRP | 0.148 |
| RRIRDRPPRLPRPRPRPPWSPRP | 0.31 |
| RRIRDRPPRLPRPRPRPPWYPRP | -0.0741 |
| RRIRDRPPRLPRPRPRPPYGPRP | -0.0609 |
| RRIRDRPPRLPRPRPRPPYVPRP | -0.0635 |

| Sequence | shrunken log2 fold change |
| --- | --- |
| RRIRDRPPRLPRPRPRPQAYPRP | 0.18 |
| RRIRDRPPRLPRPRPRPQCFPRP | 0.0363 |
| RRIRDRPPRLPRPRPRPQCTPRP | 0.191 |
| RRIRDRPPRLPRPRPRPQCYPRP | 0.0803 |
| RRIRDRPPRLPRPRPRPQDHPRP | 0.0862 |
| RRIRDRPPRLPRPRPRPQDRPRP | -0.0933 |
| RRIRDRPPRLPRPRPRPQEMPRP | -0.01 |
| RRIRDRPPRLPRPRPRPQFMPRP | 1.04 |
| RRIRDRPPRLPRPRPRPQFTPRP | 0.0284 |
| RRIRDRPPRLPRPRPRPQFWPRP | 0.345 |
| RRIRDRPPRLPRPRPRPQGDPRP | 0.0878 |
| RRIRDRPPRLPRPRPRPQGFPRP | -0.00674 |
| RRIRDRPPRLPRPRPRPQIAPRP | 0.0211 |
| RRIRDRPPRLPRPRPRPQIIPRP | 0.0399 |
| RRIRDRPPRLPRPRPRPQMWPRP | -0.23 |
| RRIRDRPPRLPRPRPRPQNPPRP | -0.00133 |
| RRIRDRPPRLPRPRPRPQQAPRP | 0.0257 |
| RRIRDRPPRLPRPRPRPQSDPRP | -0.0119 |
| RRIRDRPPRLPRPRPRPQSFPRP | -0.0337 |
| RRIRDRPPRLPRPRPRPQSVPRP | -0.0496 |
| RRIRDRPPRLPRPRPRPQTCPRP | 0.0864 |
| RRIRDRPPRLPRPRPRPQVAPRP | 0.166 |
| RRIRDRPPRLPRPRPRPQYFPRP | 0.0205 |
| RRIRDRPPRLPRPRPRPQYIPRP | -0.246 |
| RRIRDRPPRLPRPRPRPRANPRP | 0.567 |
